This is an account of results in paper PMC7954794, “Protein context shapes the specificity of SH3 domain-mediated interactions in vivo” (Nature Communications, 2021).

In this test the test system is PPIs identified as affected by the SH3 domain deletions. The experiment in a line: Liquid DHFR-PCA low-throughput validation of PPIs affected by SH3 deletion (Fig. S1D-E). It counts as cell-based, Saccharomyces cerevisiae. To be noted: label = prey, liquid DHFR-PCA, prey _1 = lost, _2 = gained in screen. In a few lines: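 Growth at 30 °C was tracked by OD each 15 min over 72 h in agar-free PCA selection medium, starting at 0.1 OD. Cells were diploids selected after mating, first cultured 48 h with NAT and HPH in synthetic complete MSG medium, pH 6.0.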

B1: YHR064C_2 (protein, UniProt P38788 1-538, looked up)
Ribosome-associated complex …: MSSPVIGITFGNTSSSIAYINPKNDVDVIANPDGERAIPSALSYVGEDEYHGGQALQQLIRNPKNTIINFRDFIGLPFDKCDVSKCANGAPAVEVDGKVGFVISRGEGKEEKLTVDEVVSRHLNRLKLAAEDYIGSAVKEAVLTVPTNFSEEQKTALKASAAKIGLQIVQFINEPSAALLAHAEQFPFEKDVNVVVADFGGIRSDAAVIAVRNGIFTILATAHDLSLGGDNLDTELVEYFASEFQKKYQANPRKNARSLAKLKANSSITKKTLSNATSATISIDSLADGFDYHASINRMRYELVANKVFAQFSSFVDSVIAKAELDPLDIDAVLLTGGVSFTPKLTTNLEYTLPESVEILGPQNKNASNNPNELAASGAALQARLISDYDADELAEALQPVIVNTPHLKKPIGLIGAKGEFHPVLLAETSFPVQKKLTLKQAKGDFLIGVYEGDHHIEEKTLEPIPKEENAEEDDESEWSDDEPEVVREKLYTLGTKLMELGIKNANGVEIIFNINKDGALRVTARDLKTGNAVKGEL
For B1, the “Ratio (Deletedscore / WTscore)” value (bait BZZ1-2) came to 1.071.

B2: YIL033C_2 (protein, UniProt P07278 2-416, looked up)
cAMP-dependent protein kinase …: VSSLPKESQAELQLFQNEINAANPSDFLQFSANYFNKRLEQQRAFLKAREPEFKAKNIVLFPEPEESFSRPQSAQSQSRSRSSVMFKSPFVNEDPHSNVFKSGFNLDPHEQDTHQQAQEEQQHTREKTSTPPLPMHFNAQRRTSVSGETLQPNNFDDWTPDHYKEKSEQQLQRLEKSIRNNFLFNKLDSDSKRLVINCLEEKSVPKGATIIKQGDQGDYFYVVEKGTVDFYVNDNKVNSSGPGSSFGELALMYNSPRAATVVATSDCLLWALDRLTFRKILLGSSFKKRLMYDDLLKSMPVLKSLTTYDRAKLADALDTKIYQPGETIIREGDQGENFYLIEYGAVDVSKKGQGVINKLKDHDYFGEVALLNDLPRQATVTATKRTKVATLGKSGFQRLLGPAVDVLKLNDPTRH
As to B2, the “Ratio (Deletedscore / WTscore)” value (bait CYK3) stood at 1.015.

B3: YML035C_2 (protein, UniProt P15274 1-810, looked up)
AMP deaminase: MDNQATQRLNDLSLEPAPSHDEQDGSGLVIDIDQRKIGDEQAGVVVDDETPPLEQQDSHESLAADSRNANFSYHENQQLLENGTKQLALDEHDSHSAILEQPSHSTNCSSSNIAAMNKGHDSADHASQNSGGKPRTLSASAQHILPETLKSFAGAPVVNKQVRTSASYKMGMLADDASQQFLDDPSSELIDLYSKVAECRNLRAKYQTISVQNDDQNPKNKPGWVVYPPPPKPSYNSDTKTVVPVTNKPDAEVFDFTKCEIPGEDPDWEFTLNDDDSYVVHRSGKTDELIAQIPTLRDYYLDLEKMISISSDGPAKSFAYRRLQYLEARWNLYYLLNEYQETSVSKRNPHRDFYNVRKVDTHVHHSACMNQKHLLRFIKHKLRHSKDEKVIFRDGKLLTLDEVFRSLHLTGYDLSIDTLDMHAHKDTFHRFDKFNLKYNPIGESRLREIFLKTNNYIKGTYLADITKQVIFDLENSKYQNCEYRISVYGRSLDEWDKLASWVIDNKVISHNVRWLVQIPRLYDIYKKTGIVQSFQDICKNLFQPLFEVTKNPQSHPKLHVFLQRVIGFDSVDDESKVDRRFHRKYPKPSLWEAPQNPPYSYYLYYLYSNVASLNQWRAKRGFNTLVLRPHCGEAGDPEHLVSAYLLAHGISHGILLRKVPFVQYLYYLDQVGIAMSPLSNNALFLTYDKNPFPRYFKRGLNVSLSTDDPLQFSYTREPLIEEYSVAAQIYKLSNVDMCELARNSVLQSGWEAQIKKHWIGKDFDKSGVEGNDVVRTNVPDIRINYRYDTLSTELELVNHFANFKRTIEEK
In the case of B3, the “Ratio (Deletedscore / WTscore)” value is 1.186 (bait HSE1) and 1.062 (bait LSB3).

B4: YBR177C_2 (protein, UniProt P38295 1-451, looked up)
Medium-chain fatty acid ethyl …: MSEVSKWPAINPFHWGYNGTVSHIVGENGSIKLHLKDNKEQVDFDEFANKYVPTLKNGAQFKLSPYLFTGILQTLYLGAADFSKKFPVFYGREIVKFSDGGVCTADWLIDSWKKDYEFDQSTTSFDKKKFDKDEKATHPEGWPRLQPRTRYLKDNELEELREVDLPLVVILHGLAGGSHEPIIRSLAENLSRSGRFQVVVLNTRGCARSKITTRNLFTAYHTMDIREFLQREKQRHPDRKLYAVGCSFGATMLANYLGEEGDKSPLSAAATLCNPWDLLLSAIRMSQDWWSRTLFSKNIAQFLTRTVQVNMGELGVPNGSLPDHPPTVKNPSFYMFTPENLIKAKSFKSTREFDEVYTAPALGFPNAMEYYKAASSINRVDTIRVPTLVINSRDDPVVGPDQPYSIVEKNPRILYCRTDLGGHLAYLDKDNNSWATKAIAEFFTKFDELVV
In the case of B4, the “Ratio (Deletedscore / WTscore)” value (bait LSB3) came out at 1.519.

B5: YFR040W_2 (protein, UniProt P43612 1-1002, looked up)
SIT4-associating protein …: MSFWPFGQNLNHSNINKILDEYFHVLHELERINPSVGKAIPAIFNNVQERGTSDSLDSIPEEYSHGDEVKTARGDQKSRFEKDDQQERYEKEEEERSMNSSESSTTSFSSGSTSKTDLDEEDISNATAPMMVTTKNLDNSFIERMLVETELLNELSRQNKTLLDFICFGFFFDKKTNKKVNNMEYLVDQLMECISKIKTATTVDLNNLIDYQEQQQLDDSSQEDVYVESDTEQEEEKEDDNNSNNKKRRKRGSSSFGNDDINNNDDDDDANEDDESAYLTKATIISEIFSLDIWLISESLVKNQSYLNKIWSIINQPNFNSENSPLVPIFLKINQNLLLTRQDQYLNFIRTERSFVDDMLKHVDISLLMDFFLKIISTDKIESPTGIIELVYDQNLISKCLSFLNNKESPADIQACVGDFLKALIAISANAPLDDISIGPNSLTRQLASPESIAKLVDIMINQRGAALNTTVSIVIELIRKNNSDYDQVNLLTTTIKTHPPSNRDPIYLGYLLRKFSNHLSDFFQIILDIENDANIPLHENQLHEKFKPLGFERFKVVELIAELLHCSNMGLMNSKRAERIARRRDKVRSQLSHHLQDALNDLSIEEKEQLKTKHSPTRDTDHDLKNNNGKIDNDNNDNDDESDYGDEIDESFEIPYINMKQNIKLRTDPTVGDLFKIKLYDTRIVSKIMELFLTHPWNNFWHNVIFDIIQQIFNGRMDFSYNSFLVLSLFNLKSSYQFMTDIVISDEKGTDVSRFSPVIRDPNFDFKITTDFILRGYQDSYKFYELRKMNLGYMGHIVLIAEEVVKFSKLYKVELISPDIQVILQTEEWQYYSEEVLNETRMMYSKILGGGSYIDDGNGNIIPQLPDNTTVLTPNGDASNNNEILDSDTGSSNGTSGGGQLINVESLEEQLSLSTESDLHNKLREMLINRAQEDVDNKNTENGVFILGPPEDKNSNSNINNTNHNSNNSNNNDNNDNNDNDNDNTRNYNEDADNDNDYDHE
B5: the “Ratio (Deletedscore / WTscore)” value (bait LSB3) is 1.731.

B6: YNL229C_2 (protein, UniProt P23202 2-354, looked up)
Transcriptional regulator URE2: MNNNGNQVSNLSNALRQVNIGNRNSNTTTDQSNINFEFSTGVNNNNNNNSSSNNNNVQNNNSGRNGSQNNDNENNIKNTLEQHRQQQQAFSDMSHVEYSRITKFFQEQPLEGYTLFSHRSAPNGFKVAIVLSELGFHYNTIFLDFNLGEHRAPEFVSVNPNARVPALIDHGMDNLSIWESGAILLHLVNKYYKETGNPLLWSDDLADQSQINAWLFFQTSGHAPMIGQALHFRYFHSQKIASAVERYTDEVRRVYGVVEMALAERREALVMELDTENAAAYSAGTTPMSQSRFFDYPVWLVGDKLTIADLAFVPWNNVVDRIGINIKIEFPEVYKWTKHMMRRPAVIKALRGE
In the case of B6, for the setting “bait HSE1”, the “Ratio (Deletedscore / WTscore)” value was determined as 0.8445.

B7: YCR030C_2 (protein, UniProt P25623 1-870, looked up)
Suppressor of yeast profilin …: MTEQRTKYADSILTTKSPYEATETIRIRLSQVKLLNKDFYLLFKELANLKRNYAQQLRKIIAENEDITKILNAQMIESNVLTPQEMSAFRFNSLGELRNVWDTVIEELKSDLKSSTEYYNTLDQQVVRELKESVENNTSWRESKDLHSKLSKNAASIEHYSKNNENSSHLEEARRQWDQQSPYLFELFETIDYNRLDTLKNCMLRFQTSFSDYLLNTTKECETVMTKFLAFEPQSEIDRFAKDASQYNFQLSSSSKEVVPNNASPASATGARPVSVSNGAANTEREKKSPQKDKRKSAFGNIGHRLASASSSLTHNDLMNNEFSDSTNNSSLKSKKSSHTLRSKVGSIFGRNKTKNKRQQQSSSNSHIQASITETPNNSSTRVSSTATSSIYQKQRRPTYSSSKSNNWTPGEASDTPPLPPHATPKNVDAPVTADTPPAQTFTPSEVPPSTPQQSSPPTAKEPDSSNLPKTVPISISQPPLQPQSKTKPLPVEPASPSISLPTATVDNQPSGQVDSRPLHIRAPALPPSRKQNFIHNRDSQLYDSLPNHGSGATPTSSSLSSIPQERPVSTLSSQITGELRELNPQATGSSTSLVGQSLFQHSSLDTSQFGLNASIAEVLNASFKDGMLQNSQLIGEIALNYLPNSVMNSPLPIGINLRINNGAKFEKVILNQAFIERVAPEEFKVNPSFIDSRTLGAIKYSIKEPIAPIVIHPVWRFESHQASVVLTVKMSPSLPDEISQIVIEDLVVFVNIDGANATSALSKPQGSFSKEKKRITWRFKEPVVLTRNGEGQRLIARFITDGLAHESAKGVITKFTISETDNVALPHSGAGSGITLTCQELDENNPFGGEWLDVNTKRTLTTGNYHGLA
Turning to B7, for the setting “bait BZZ1-2”, the “Ratio (Deletedscore / WTscore)” value was determined as 1.115.

B8: YDL225W_2 (protein, UniProt Q07657 2-551, looked up)
Seventh homolog of septin 1: STASTPPINLFRRKKEHKRGITYTMLLCGPAGTGKTAFANNLLETKIFPHKYQYGKSNASISSNPEVKVIAPTKVVSFNSKNGIPSYVSEFDPMRANLEPGITITSTSLELGGNKDQGKPEMNEDDTVFFNLIMTHGIGENLDDSLCSEEVMSYLEQQFDIVLAEETRIKRNPRFEDTRVHVALYFIEPTGHGLREVDVELMKSISKYTNVLPIITRADSFTKEELTQFRKNIMFDVERYNVPIYKFEVDPEDDDLESMEENQALASLQPFAIITSDTRDSEGRYVREYPWGIISIDDDKISDLKVLKNVLFGSHLQEFKDTTQNLLYENYRSEKLSSVANAEEIGPNSTKRQSNAPSLSNFASLISTGQFNSSQTLANNLRADTPRNQVSGNFKENEYEDNGEHDSAENEQEMSPVRQLGREIKQENENLIRSIKTESSPKFLNSPDLPERTKLRNISETVPYVLRHERILARQQKLEELEAQSAKELQKRIQELERKAHELKLREKLINQNKLNGSSSSINSLQQSTRSQIKKNDTYTDLASIASGRD
Turning to B8, the “Ratio (Deletedscore / WTscore)” value (bait BZZ1-2) turned out to be 1.566 and the “Ratio (Deletedscore / WTscore)” value (bait HOF1) came out at 1.663.

B9: YBL071W-A_2 (protein, UniProt Q3E840 1-82, looked up)
Diphthamide biosynthesis …: MSTYDEIEIEDMTFEPENQMFTYPCPCGDRFQIYLDDMFEGEKVAVCPSCSLMIDVVFDKEDLAEYYEEAGIHPPEPIAAAA
B9: the “Ratio (Deletedscore / WTscore)” value (bait ABP1) is given as 1.188.
